The record followed here is patent US20060058231A1 (Xencor, published 2006).

Experiment in all cases: ELISA-like plate assay, captured BMP-7 from conditioned media, receptor-Fc detection
Assay [1] has as its target T1, BMPRII receptor-Fc fusion (UniProt Q13873 27-151, limits assumed).
T1 construct: BMP receptor-Fc fusion used at 5 ug/mL
T1 sequence (looked up): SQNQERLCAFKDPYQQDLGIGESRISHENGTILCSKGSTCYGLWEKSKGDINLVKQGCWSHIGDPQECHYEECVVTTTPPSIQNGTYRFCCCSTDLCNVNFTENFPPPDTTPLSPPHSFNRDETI

In assay [2] the target is T2, ActRIIa receptor-Fc fusion (UniProt P27037 20-134, limits assumed).
T2 construct: BMP receptor-Fc fusion used at 5 ug/mL

The target of assay [3] is T3, BMPRIa receptor-Fc fusion (UniProt P36894 24-152, limits assumed).
T3 construct: also called ALK-3

For assay [4], the target named is T4, BMPRIb receptor-Fc fusion (UniProt O00238 14-126).
T4 construct: BMP receptor-Fc fusion used at 5 ug/mL; also called ALK-6
T4 sequence (looked up): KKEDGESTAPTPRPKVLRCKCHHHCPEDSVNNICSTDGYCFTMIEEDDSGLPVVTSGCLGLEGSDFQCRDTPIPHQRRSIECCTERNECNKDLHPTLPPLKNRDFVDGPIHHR

T2 sequence (P27037 20-134 limits assumed): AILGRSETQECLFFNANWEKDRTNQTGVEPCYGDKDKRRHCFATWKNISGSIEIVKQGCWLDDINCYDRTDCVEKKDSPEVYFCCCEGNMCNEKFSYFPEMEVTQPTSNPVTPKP
T3 sequence (P36894 24-152 limits assumed): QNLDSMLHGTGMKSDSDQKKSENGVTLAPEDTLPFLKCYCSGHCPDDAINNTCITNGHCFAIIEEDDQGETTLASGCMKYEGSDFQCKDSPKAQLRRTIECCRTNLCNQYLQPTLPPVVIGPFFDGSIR

B1: BMP-7 variant F73S (ligand)
chain: STGGKQRSQNRSKTPKNQEALRMASVAENSSSDQRQACKKHELYVSFRDLGWQDWIIAPEGYAAYYCEGECASPLNSYMNATNHAIVQTLVHFINPETVPKPCCAPTQLNAISVLYFDDSSNVILKKYRNMVVRACGCH
notes: In conditioned media; numbering on mature BMP-7
On to B1, for which the “BMPRII binding (relative to wild type = 1.0)” value in assay [1] was 2.84 relative to wild type. The “ActRIIa binding (relative to wild type = 1.0)” value in assay [2] is 2.54 relative to wild type. Moreover, the “BMPRIa binding (relative to wild type = 1.0)” value in assay [3] is 0.9 relative to wild type. Besides, the “BMPRIb binding (relative to wild type = 1.0)” value in assay [4] is 0.25 relative to wild type.

B2: BMP-7 variant F117K (ligand)
chain: STGGKQRSQNRSKTPKNQEALRMASVAENSSSDQRQACKKHELYVSFRDLGWQDWIIAPEGYAAYYCEGECAFPLNSYMNATNHAIVQTLVHFINPETVPKPCCAPTQLNAISVLYKDDSSNVILKKYRNMVVRACGCH
notes: as for B1
For the molecule B2, in assay [1], the “BMPRII binding (relative to wild type = 1.0)” value was 0.2 relative to wild type. The “ActRIIa binding (relative to wild type = 1.0)” value in assay [2] was 0.34 relative to wild type. In addition, the “BMPRIa binding (relative to wild type = 1.0)” value in assay [3] is 0.43 relative to wild type. Besides, the “BMPRIb binding (relative to wild type = 1.0)” value in assay [4] was 0.62 relative to wild type.

B3: BMP-7 variant I86E (ligand)
chain: STGGKQRSQNRSKTPKNQEALRMASVAENSSSDQRQACKKHELYVSFRDLGWQDWIIAPEGYAAYYCEGECAFPLNSYMNATNHAEVQTLVHFINPETVPKPCCAPTQLNAISVLYFDDSSNVILKKYRNMVVRACGCH
notes: as for B1
As for B3, the “BMPRII binding (relative to wild type = 1.0)” value in assay [1] was 1.13 relative to wild type. In addition, the “ActRIIa binding (relative to wild type = 1.0)” value in assay [2] is 1 relative to wild type. Also, in assay [3], the “BMPRIa binding (relative to wild type = 1.0)” value was 0.66 relative to wild type. Further, the “BMPRIb binding (relative to wild type = 1.0)” value in assay [4] was 0.69 relative to wild type.

B4: BMP-7 variant F93H (ligand)
chain: STGGKQRSQNRSKTPKNQEALRMASVAENSSSDQRQACKKHELYVSFRDLGWQDWIIAPEGYAAYYCEGECAFPLNSYMNATNHAIVQTLVHHINPETVPKPCCAPTQLNAISVLYFDDSSNVILKKYRNMVVRACGCH
notes: as for B1
Take B4: the “BMPRII binding (relative to wild type = 1.0)” value in assay [1] is 1.2 relative to wild type. For the same molecule, in assay [2], the “ActRIIa binding (relative to wild type = 1.0)” value was 0.98 relative to wild type. Besides, the “BMPRIa binding (relative to wild type = 1.0)” value in assay [3] is 1.03 relative to wild type. In assay [4], the “BMPRIb binding (relative to wild type = 1.0)” value was 1.04 relative to wild type.

B5: BMP-7 variant F93T (ligand)
chain: STGGKQRSQNRSKTPKNQEALRMASVAENSSSDQRQACKKHELYVSFRDLGWQDWIIAPEGYAAYYCEGECAFPLNSYMNATNHAIVQTLVHTINPETVPKPCCAPTQLNAISVLYFDDSSNVILKKYRNMVVRACGCH
notes: as for B1
For the molecule B5, the “BMPRII binding (relative to wild type = 1.0)” value in assay [1] is 0.81 relative to wild type. Besides, the “ActRIIa binding (relative to wild type = 1.0)” value in assay [2] was 0.79 relative to wild type. In addition, the “BMPRIa binding (relative to wild type = 1.0)” value in assay [3] is 0.77 relative to wild type. Also, the “BMPRIb binding (relative to wild type = 1.0)” value in assay [4] was 0.88 relative to wild type.

B6: BMP-7 variant F93G (ligand)
chain: STGGKQRSQNRSKTPKNQEALRMASVAENSSSDQRQACKKHELYVSFRDLGWQDWIIAPEGYAAYYCEGECAFPLNSYMNATNHAIVQTLVHGINPETVPKPCCAPTQLNAISVLYFDDSSNVILKKYRNMVVRACGCH
notes: as for B1
In the case of B6, the “BMPRII binding (relative to wild type = 1.0)” value in assay [1] is 0.35 relative to wild type. In addition, in assay [2], the “ActRIIa binding (relative to wild type = 1.0)” value is 0.63 relative to wild type. In assay [3], the “BMPRIa binding (relative to wild type = 1.0)” value was 0.6 relative to wild type. Further, the “BMPRIb binding (relative to wild type = 1.0)” value in assay [4] is 0.53 relative to wild type.

B7: BMP-7 variant I86K (ligand)
chain: STGGKQRSQNRSKTPKNQEALRMASVAENSSSDQRQACKKHELYVSFRDLGWQDWIIAPEGYAAYYCEGECAFPLNSYMNATNHAKVQTLVHFINPETVPKPCCAPTQLNAISVLYFDDSSNVILKKYRNMVVRACGCH
notes: as for B1
On to B7, for which, in assay [1], the “BMPRII binding (relative to wild type = 1.0)” value was 1.02 relative to wild type. Also, the “ActRIIa binding (relative to wild type = 1.0)” value in assay [2] is 0.97 relative to wild type. In addition, the “BMPRIa binding (relative to wild type = 1.0)” value in assay [3] is 0.81 relative to wild type. Further, the “BMPRIb binding (relative to wild type = 1.0)” value in assay [4] is 0.69 relative to wild type.

B8: BMP-7 variant I57L (ligand)
chain: STGGKQRSQNRSKTPKNQEALRMASVAENSSSDQRQACKKHELYVSFRDLGWQDWILAPEGYAAYYCEGECAFPLNSYMNATNHAIVQTLVHFINPETVPKPCCAPTQLNAISVLYFDDSSNVILKKYRNMVVRACGCH
notes: as for B1
Consider B8, for which, in assay [1], the “BMPRII binding (relative to wild type = 1.0)” value is 0.4 relative to wild type. The “ActRIIa binding (relative to wild type = 1.0)” value in assay [2] is 0.9 relative to wild type. Further, the “BMPRIa binding (relative to wild type = 1.0)” value in assay [3] was 0.92 relative to wild type. The “BMPRIb binding (relative to wild type = 1.0)” value in assay [4] is 1.17 relative to wild type.

B9: BMP-7 variant I86D (ligand)
chain: STGGKQRSQNRSKTPKNQEALRMASVAENSSSDQRQACKKHELYVSFRDLGWQDWIIAPEGYAAYYCEGECAFPLNSYMNATNHADVQTLVHFINPETVPKPCCAPTQLNAISVLYFDDSSNVILKKYRNMVVRACGCH
notes: as for B1
In the case of B9, in assay [1], the “BMPRII binding (relative to wild type = 1.0)” value was 1.31 relative to wild type. The “ActRIIa binding (relative to wild type = 1.0)” value in assay [2] is 1.09 relative to wild type. In assay [3], the “BMPRIa binding (relative to wild type = 1.0)” value is 1.03 relative to wild type. In addition, in assay [4], the “BMPRIb binding (relative to wild type = 1.0)” value was 1.18 relative to wild type.

B10: BMP-7 variant F93E (ligand)
chain: STGGKQRSQNRSKTPKNQEALRMASVAENSSSDQRQACKKHELYVSFRDLGWQDWIIAPEGYAAYYCEGECAFPLNSYMNATNHAIVQTLVHEINPETVPKPCCAPTQLNAISVLYFDDSSNVILKKYRNMVVRACGCH
notes: as for B1
Take B10: the “BMPRII binding (relative to wild type = 1.0)” value in assay [1] was 0.62 relative to wild type. Moreover, in assay [2], the “ActRIIa binding (relative to wild type = 1.0)” value was 0.79 relative to wild type. The “BMPRIa binding (relative to wild type = 1.0)” value in assay [3] is 0.83 relative to wild type. Besides, the “BMPRIb binding (relative to wild type = 1.0)” value in assay [4] is 0.99 relative to wild type.

B11: BMP-7 variant F117R (ligand)
chain: STGGKQRSQNRSKTPKNQEALRMASVAENSSSDQRQACKKHELYVSFRDLGWQDWIIAPEGYAAYYCEGECAFPLNSYMNATNHAIVQTLVHFINPETVPKPCCAPTQLNAISVLYRDDSSNVILKKYRNMVVRACGCH
notes: as for B1
On to B11, for which the “BMPRII binding (relative to wild type = 1.0)” value in assay [1] was 0.72 relative to wild type. In addition, the “ActRIIa binding (relative to wild type = 1.0)” value in assay [2] was 0.35 relative to wild type. In addition, in assay [3], the “BMPRIa binding (relative to wild type = 1.0)” value is 0.47 relative to wild type. The “BMPRIb binding (relative to wild type = 1.0)” value in assay [4] was 0.71 relative to wild type.

B12: BMP-7 variant F93D (ligand)
chain: STGGKQRSQNRSKTPKNQEALRMASVAENSSSDQRQACKKHELYVSFRDLGWQDWIIAPEGYAAYYCEGECAFPLNSYMNATNHAIVQTLVHDINPETVPKPCCAPTQLNAISVLYFDDSSNVILKKYRNMVVRACGCH
notes: as for B1
In the case of B12, the “BMPRII binding (relative to wild type = 1.0)” value in assay [1] is 0.62 relative to wild type. In addition, the “ActRIIa binding (relative to wild type = 1.0)” value in assay [2] was 0.8 relative to wild type. In addition, the “BMPRIa binding (relative to wild type = 1.0)” value in assay [3] is 0.96 relative to wild type. Further, the “BMPRIb binding (relative to wild type = 1.0)” value in assay [4] was 0.91 relative to wild type.

B13: BMP-7 variant F117Y (ligand)
chain: STGGKQRSQNRSKTPKNQEALRMASVAENSSSDQRQACKKHELYVSFRDLGWQDWIIAPEGYAAYYCEGECAFPLNSYMNATNHAIVQTLVHFINPETVPKPCCAPTQLNAISVLYYDDSSNVILKKYRNMVVRACGCH
notes: as for B1
Turning to B13, the “BMPRII binding (relative to wild type = 1.0)” value in assay [1] is 0.96 relative to wild type. The “ActRIIa binding (relative to wild type = 1.0)” value in assay [2] was 1.03 relative to wild type. Also, the “BMPRIa binding (relative to wild type = 1.0)” value in assay [3] is 1.07 relative to wild type. Further, the “BMPRIb binding (relative to wild type = 1.0)” value in assay [4] is 0.73 relative to wild type.

B14: BMP-7 variant I86Q (ligand)
chain: STGGKQRSQNRSKTPKNQEALRMASVAENSSSDQRQACKKHELYVSFRDLGWQDWIIAPEGYAAYYCEGECAFPLNSYMNATNHAQVQTLVHFINPETVPKPCCAPTQLNAISVLYFDDSSNVILKKYRNMVVRACGCH
notes: as for B1
Turning to B14, the “BMPRII binding (relative to wild type = 1.0)” value in assay [1] was 1.07 relative to wild type. For the same molecule, the “ActRIIa binding (relative to wild type = 1.0)” value in assay [2] was 0.96 relative to wild type. Besides, in assay [3], the “BMPRIa binding (relative to wild type = 1.0)” value is 0.66 relative to wild type. In assay [4], the “BMPRIb binding (relative to wild type = 1.0)” value is 0.82 relative to wild type.
